Measurements: article PMC10786891, “Massively parallel profiling of RNA-targeting CRISPR-Cas13d”

T1: EsCas13d, nuclease-dead (Eubacterium siraeum, UniProt B0MS50, R295A;H300A;R849A;H854A)
T1 sequence: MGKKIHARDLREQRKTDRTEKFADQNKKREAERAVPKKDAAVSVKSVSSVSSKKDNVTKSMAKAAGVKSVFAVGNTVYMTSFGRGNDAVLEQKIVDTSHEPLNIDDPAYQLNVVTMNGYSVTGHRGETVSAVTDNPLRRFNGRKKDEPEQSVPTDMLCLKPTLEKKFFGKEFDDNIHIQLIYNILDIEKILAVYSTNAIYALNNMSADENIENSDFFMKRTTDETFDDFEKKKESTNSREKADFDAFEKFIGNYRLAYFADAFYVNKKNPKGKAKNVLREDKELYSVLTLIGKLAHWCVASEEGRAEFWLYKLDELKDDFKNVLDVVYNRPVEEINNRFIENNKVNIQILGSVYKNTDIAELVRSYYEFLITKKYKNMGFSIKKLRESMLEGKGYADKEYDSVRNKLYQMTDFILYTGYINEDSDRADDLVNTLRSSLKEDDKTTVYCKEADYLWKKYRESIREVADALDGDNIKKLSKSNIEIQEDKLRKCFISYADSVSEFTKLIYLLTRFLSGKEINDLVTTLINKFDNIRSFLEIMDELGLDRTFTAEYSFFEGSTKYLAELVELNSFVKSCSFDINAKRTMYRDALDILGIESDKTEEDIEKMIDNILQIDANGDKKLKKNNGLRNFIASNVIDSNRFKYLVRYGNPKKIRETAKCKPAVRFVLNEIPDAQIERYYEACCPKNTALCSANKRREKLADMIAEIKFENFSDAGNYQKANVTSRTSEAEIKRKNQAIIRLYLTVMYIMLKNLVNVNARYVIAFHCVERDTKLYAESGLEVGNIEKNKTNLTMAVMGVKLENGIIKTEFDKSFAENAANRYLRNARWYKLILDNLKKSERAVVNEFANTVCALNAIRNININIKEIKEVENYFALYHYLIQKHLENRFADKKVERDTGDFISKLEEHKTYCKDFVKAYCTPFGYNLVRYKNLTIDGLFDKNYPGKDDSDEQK

B1: target 1 insA 3' of 10,insA 3' of 6 (mixed)
RNA 1: CACCCGUGCAAAAAUGCAGGGGUCUAAAACUGAGCGGAUAACCUCUCUAUGG
RNA 2: GGGAAUGGAUCCACAUCUACGAAUUCGUACCAUAGAGAGGUUAAUCCAGCUCACCGAGAUCGGAAGAGCACACGU
B2: target 1 A1U,C6G (mixed)
RNA 1: CACCCGUGCAAAAAUGCAGGGGUCUAAAACUGAGCGGAUAACCUCUCUAUGG
RNA 2: GGGAAUGGAUCCACAUCUACGAAUUCGUACCAUAGAGAGGUUAUCGGCUCUCCGAGAUCGGAAGAGCACACGU
B3: target 1 U10G,U11G (mixed)
RNA 1: CACCCGUGCAAAAAUGCAGGGGUCUAAAACUGAGCGGAUAACCUCUCUAUGG
RNA 2: GGGAAUGGAUCCACAUCUACGAAUUCGUACCAUAGAGAGGGGAUCCGCUCACCGAGAUCGGAAGAGCACACGU
B4: target 1 A1U,C4U (mixed)
RNA 1: CACCCGUGCAAAAAUGCAGGGGUCUAAAACUGAGCGGAUAACCUCUCUAUGG
RNA 2: GGGAAUGGAUCCACAUCUACGAAUUCGUACCAUAGAGAGGUUAUCCGUUCUCCGAGAUCGGAAGAGCACACGU
B5: target 3 insA 3' of 6,insC 3' of 4 (mixed)
RNA 1: CACCCGUGCAAAAUUGCAGGGGUCUAAAACGACCUGAAUAUUUCAGAUCAAA
RNA 2: GGGAAUGGAUCCACAUCUACGAAUUCGUUUUUGAUCUGAAAUAUUCAAGCGUCUGCAGAUCGGAAGAGCACACGU
B6: target 3 insU 3' of 16,insU 3' of 1 (mixed)
RNA 1: CACCCGUGCAAAAUUGCAGGGGUCUAAAACGACCUGAAUAUUUCAGAUCAAA
RNA 2: GGGAAUGGAUCCACAUCUACGAAUUCGUUUUUGAUCUUGAAAUAUUCAGGUCUUGCAGAUCGGAAGAGCACACGU
B7: target 3 insC 3' of 22,insU 3' of 6 (mixed)
RNA 1: CACCCGUGCAAAAUUGCAGGGGUCUAAAACGACCUGAAUAUUUCAGAUCAAA
RNA 2: GGGAAUGGAUCCACAUCUACGAAUUCGUUUCUUGAUCUGAAAUAUUCUAGGUCUGCAGAUCGGAAGAGCACACGU
B8: target 3 G4A,U8G (mixed)
RNA 1: CACCCGUGCAAAAUUGCAGGGGUCUAAAACGACCUGAAUAUUUCAGAUCAAA
RNA 2: GGGAAUGGAUCCACAUCUACGAAUUCGUUUUUGAUCUGAAAUAGUCAAGUCUGCAGAUCGGAAGAGCACACGU
B9: target 3 C1G,A12G (mixed)
RNA 1: CACCCGUGCAAAAUUGCAGGGGUCUAAAACGACCUGAAUAUUUCAGAUCAAA
RNA 2: GGGAAUGGAUCCACAUCUACGAAUUCGUUUUUGAUCUGAGAUAUUCAGGUGUGCAGAUCGGAAGAGCACACGU
B10: target 3 U8C,A9G (mixed)
RNA 1: CACCCGUGCAAAAUUGCAGGGGUCUAAAACGACCUGAAUAUUUCAGAUCAAA
RNA 2: GGGAAUGGAUCCACAUCUACGAAUUCGUUUUUGAUCUGAAAUGCUCAGGUCUGCAGAUCGGAAGAGCACACGU
B11: target 3 insC 3' of 22,insA 3' of 21 (mixed)
RNA 1: CACCCGUGCAAAAUUGCAGGGGUCUAAAACGACCUGAAUAUUUCAGAUCAAA
RNA 2: GGGAAUGGAUCCACAUCUACGAAUUCGUUUCUAUGAUCUGAAAUAUUCAGGUCUGCAGAUCGGAAGAGCACACGU
B12: target 3 insA 3' of 2 (mixed)
RNA 1: CACCCGUGCAAAAUUGCAGGGGUCUAAAACGACCUGAAUAUUUCAGAUCAAA
RNA 2: GGGAAUGGAUCCACAUCUACGAAUUCGUUUUUGAUCUGAAAUAUUCAGGUACUGCAGAUCGGAAGAGCACACGU
B13: target 3 insG 3' of 9,insC 3' of 8 (mixed)
RNA 1: CACCCGUGCAAAAUUGCAGGGGUCUAAAACGACCUGAAUAUUUCAGAUCAAA
RNA 2: GGGAAUGGAUCCACAUCUACGAAUUCGUUUUUGAUCUGAAAUAGUCUCAGGUCUGCAGAUCGGAAGAGCACACGU
B14: target 3 A5U,C6U (mixed)
RNA 1: CACCCGUGCAAAAUUGCAGGGGUCUAAAACGACCUGAAUAUUUCAGAUCAAA
RNA 2: GGGAAUGGAUCCACAUCUACGAAUUCGUUUUUGAUCUGAAAUAUUUUGGUCUGCAGAUCGGAAGAGCACACGU
B15: target 3 insU 3' of 16,insU 3' of 3 (mixed)
RNA 1: CACCCGUGCAAAAUUGCAGGGGUCUAAAACGACCUGAAUAUUUCAGAUCAAA
RNA 2: GGGAAUGGAUCCACAUCUACGAAUUCGUUUUUGAUCUUGAAAUAUUCAGGUUCUGCAGAUCGGAAGAGCACACGU
B16: target 3 insA 3' of 8,insC 3' of 8 (mixed)
RNA 1: CACCCGUGCAAAAUUGCAGGGGUCUAAAACGACCUGAAUAUUUCAGAUCAAA
RNA 2: GGGAAUGGAUCCACAUCUACGAAUUCGUUUUUGAUCUGAAAUAUACUCAGGUCUGCAGAUCGGAAGAGCACACGU
B17: target 3 del6,del9 (mixed)
RNA 1: CACCCGUGCAAAAUUGCAGGGGUCUAAAACGACCUGAAUAUUUCAGAUCAAA
RNA 2: GGGAAUGGAUCCACAUCUACGAAUUCGUUUUUGAUCUGAAAUUUAGGUCUGCAGAUCGGAAGAGCACACGU
B18: target 3 insU 3' of 9,insC 3' of 8 (mixed)
RNA 1: CACCCGUGCAAAAUUGCAGGGGUCUAAAACGACCUGAAUAUUUCAGAUCAAA
RNA 2: GGGAAUGGAUCCACAUCUACGAAUUCGUUUUUGAUCUGAAAUAUUCUCAGGUCUGCAGAUCGGAAGAGCACACGU
B19: target 3 C1U,A12C (mixed)
RNA 1: CACCCGUGCAAAAUUGCAGGGGUCUAAAACGACCUGAAUAUUUCAGAUCAAA
RNA 2: GGGAAUGGAUCCACAUCUACGAAUUCGUUUUUGAUCUGACAUAUUCAGGUUUGCAGAUCGGAAGAGCACACGU
B20: target 3 insG 3' of 2,insC 3' of 2 (mixed)
RNA 1: CACCCGUGCAAAAUUGCAGGGGUCUAAAACGACCUGAAUAUUUCAGAUCAAA
RNA 2: GGGAAUGGAUCCACAUCUACGAAUUCGUUUUUGAUCUGAAAUAUUCAGGUGCCUGCAGAUCGGAAGAGCACACGU
B21: target 3 insC 3' of 4,insG 3' of 2 (mixed)
RNA 1: CACCCGUGCAAAAUUGCAGGGGUCUAAAACGACCUGAAUAUUUCAGAUCAAA
RNA 2: GGGAAUGGAUCCACAUCUACGAAUUCGUUUUUGAUCUGAAAUAUUCAGCGUGCUGCAGAUCGGAAGAGCACACGU
B22: target 3 U2A,A18G (mixed)
RNA 1: CACCCGUGCAAAAUUGCAGGGGUCUAAAACGACCUGAAUAUUUCAGAUCAAA
RNA 2: GGGAAUGGAUCCACAUCUACGAAUUCGUUUUUGGUCUGAAAUAUUCAGGACUGCAGAUCGGAAGAGCACACGU
B23: target 3 U2A,U8C (mixed)
RNA 1: CACCCGUGCAAAAUUGCAGGGGUCUAAAACGACCUGAAUAUUUCAGAUCAAA
RNA 2: GGGAAUGGAUCCACAUCUACGAAUUCGUUUUUGAUCUGAAAUACUCAGGACUGCAGAUCGGAAGAGCACACGU
B24: target 3 G4A,U8C (mixed)
RNA 1: CACCCGUGCAAAAUUGCAGGGGUCUAAAACGACCUGAAUAUUUCAGAUCAAA
RNA 2: GGGAAUGGAUCCACAUCUACGAAUUCGUUUUUGAUCUGAAAUACUCAAGUCUGCAGAUCGGAAGAGCACACGU
B25: target 3 insU 3' of 13,insA 3' of 2 (mixed)
RNA 1: CACCCGUGCAAAAUUGCAGGGGUCUAAAACGACCUGAAUAUUUCAGAUCAAA
RNA 2: GGGAAUGGAUCCACAUCUACGAAUUCGUUUUUGAUCUGAUAAUAUUCAGGUACUGCAGAUCGGAAGAGCACACGU
B26: target 3 insC 3' of 18,insA 3' of 17 (mixed)
RNA 1: CACCCGUGCAAAAUUGCAGGGGUCUAAAACGACCUGAAUAUUUCAGAUCAAA
RNA 2: GGGAAUGGAUCCACAUCUACGAAUUCGUUUUUGACUACUGAAAUAUUCAGGUCUGCAGAUCGGAAGAGCACACGU
B27: target 3 G4A,A11G (mixed)
RNA 1: CACCCGUGCAAAAUUGCAGGGGUCUAAAACGACCUGAAUAUUUCAGAUCAAA
RNA 2: GGGAAUGGAUCCACAUCUACGAAUUCGUUUUUGAUCUGAAGUAUUCAAGUCUGCAGAUCGGAAGAGCACACGU
B28: target 3 del4,del5 (mixed)
RNA 1: CACCCGUGCAAAAUUGCAGGGGUCUAAAACGACCUGAAUAUUUCAGAUCAAA
RNA 2: GGGAAUGGAUCCACAUCUACGAAUUCGUUUUUGAUCUGAAAUAUUCGUCUGCAGAUCGGAAGAGCACACGU

target: T1, EsCas13d, nuclease-dead; assay: crRNA (strand 1, pre-loaded); Mg2+; 40 mM Tris-HCl pH 7.5, 150 mM NaCl, 6 mM MgCl2, 1 mM DTT, 0.1% Tween-20, 0.2 mg/ml BSA; 25 C; 10 min per concentration, then washed; details: tags: His6-TwinStrep-SUMO cleaved; N-terminal SNAP kept (SNAP-Surface 488); label: 3' end held by stalled T7 RNA polymerase

Which Kd does the source give for B1 here?
Its Kd is 11.1 ± 0.7 nM.

B2 was tested. Which Kd did it give?
The Kd was 12.1 ± 0.9 nM.

How did the Kd turn out when B3 was run?
Its Kd is 32.7 ± 2.9 nM.

For B4, which Kd is on record?
The Kd was 13 ± 1.7 nM.

Which Kd does the source give for B5 here?
The Kd was 8.4 ± 0.95 nM.

With B6 as the binder, how does the Kd read?
Its Kd is 39.5 ± 6.5 nM.

B7 was tested. Which Kd did it give?
The Kd was 29.6 ± 2.7 nM.

Which Kd does the source give for B8 here?
Its Kd is 77.5 ± 21 nM.

Which Kd does the source give for B9 here?
The Kd was 50 ± 9 nM.

B10 was tested. Which Kd did it give?
Its Kd is 77 ± 15.5 nM.

B11 was tested. Which Kd did it give?
The Kd was 43 ± 5 nM.

B12 was tested. Which Kd did it give?
The Kd was 30.2 ± 2.55 nM.

How did the Kd turn out when B13 was run?
The Kd was 90 ± 16.5 nM.

With B14 as the binder, how does the Kd read?
The Kd was 48 ± 6 nM.

With B15 as the binder, how does the Kd read?
The Kd was 29 ± 5 nM.

With B16 as the binder, how does the Kd read?
The Kd was 63 ± 10 nM.

For B17, which Kd is on record?
Its Kd is 120 ± 24 nM.

B18 was tested. Which Kd did it give?
The Kd was 81.5 ± 13 nM.

How did the Kd turn out when B19 was run?
The Kd was 86.5 ± 17 nM.

Which Kd does the source give for B20 here?
The Kd was 68.5 ± 10.5 nM.

How did the Kd turn out when B21 was run?
The Kd was 50.5 ± 9.5 nM.

Which Kd does the source give for B22 here?
Its Kd is 55.5 ± 7.5 nM.

With B23 as the binder, how does the Kd read?
Its Kd is 44.5 ± 6 nM.

For B24, which Kd is on record?
The Kd was 52.8 ± 5.6 nM.

How did the Kd turn out when B25 was run?
The Kd was 74 ± 17.5 nM.

For B26, which Kd is on record?
Its Kd is 34.5 ± 11 nM.

Which Kd does the source give for B27 here?
Its Kd is 36 ± 5 nM.

With B28 as the binder, how does the Kd read?
The Kd was 24.6 ± 2.15 nM.
